For 28 sequences, Kd and IC50 results are on record in the Immune Epitope Database (IEDB).

Where only a bound is given, the exact number is not on record here.

For one experiment, the target named is HLA-A*30:02. The experiment in a line: IEDB peptide-MHC binding, purified MHC/competitive/radioactivity; filed as Kd, often an IC50 or EC50 that approximates it; ≥ and ≤ were set here for values at or beyond the usual limits of such assays.
Experiment [1] deals with HLA-B*15:01. The experiment is described as above.
The target in another experiment is HLA-A*26:01. The experiment is described as above.
The target in another experiment is HLA-A*29:02. Described as above.
The target in another experiment is HLA-A*32:01. The description is as above.
The next experiment addresses HLA-A*01:01. The description is as above.
The next experiment deals with HLA-A*30:01. The experiment is described as above.
The target of experiment [2] is HLA-A*24:02. The experiment is described as follows: IEDB peptide-MHC binding, purified MHC/competitive/fluorescence; ≥ and ≤ were set here for values at or beyond the usual limits of such assays.
The next experiment deals with HLA-A*02:01. Described as above.
The target in experiment [3] is HLA-B*15:01. The experiment in a line: IEDB peptide-MHC binding, purified MHC/competitive/fluorescence; filed as Kd, often an IC50 or EC50 that approximates it; ≥ and ≤ were set here for values at or beyond the usual limits of such assays.
In another experiment the target is HLA-A*23:01. The experiment is described as follows: IEDB peptide-MHC binding, purified MHC/competitive/radioactivity; filed as Kd, often an IC50 or EC50 that approximates it; ≥ and ≤ were set here for values at or beyond the usual limits of such assays. The settings on record: source organism: Mammarenavirus lassaense.
Experiment [4] deals with HLA-A*24:02. Described as above. Particulars: source organism: Mammarenavirus lassaense.
The mark [5] stands for this setting: source organism: Dengue virus 3 Martinique/1243/1999.
Setting [6] is: source organism: Lymphocytic choriomeningitis virus (strain Armstrong).
Where [7] appears, read: source organism: Vaccinia virus WR.
Setting [8] is: source organism: Vaccinia virus.
Setting [9] is: source organism: Mammarenavirus brazilense.
[10] abbreviates: source organism: Zaire ebolavirus.
Setting [11] is: source organism: Mammarenavirus lassaense.
The mark [12] stands for this setting: source organism: Dengue virus 2 Jamaica/1409/1983.
Setting [13] is: source organism: Sudan ebolavirus.

Take EMCDDTVTY: the Kd with HLA-A*30:02 (setting [5]) was ≥ 76.9 µM; in the experiment with HLA-B*15:01 [1] (setting [5]), 0.099 µM; with HLA-A*26:01 (setting [5]), 11.2 µM.
As for STAPSSPPPY, the Kd with HLA-A*30:02 (setting [6]) turned out to be 1.52 µM; with HLA-A*26:01 (setting [6]), 8.26 µM; with HLA-A*29:02 (setting [6]) it was 2.69 µM; in the experiment with HLA-A*32:01 (setting [6]), 9.4 µM; with HLA-A*01:01 (setting [6]), 0.034 µM; with HLA-A*30:01 (setting [6]), 0.344 µM.
Regarding IVINPFVKF, the Kd with HLA-A*32:01 (setting [7]) was 3.26 µM.
Regarding EWAMEKSSK, the IC50 with HLA-A*24:02 [2] (setting [8]) is ≥ 382 µM.
In the case of SLTEEFYHSY, the Kd is 0.225 µM with HLA-A*30:02 (setting [9]); 3.41 µM with HLA-A*26:01 (setting [9]); 1.44 µM with HLA-A*29:02 (setting [9]); ≥ 26.1 µM with HLA-A*32:01 (setting [9]); 0.129 µM in the experiment with HLA-A*01:01 (setting [9]); ≥ 58.5 µM in the experiment with HLA-A*30:01 (setting [9]).
As to VQKEGVFHTM, in the experiment with HLA-B*15:01 [1] (setting [5]), the dissociation constant (Kd) amounted to 0.0242 µM.
Take KFPYEGGKV: the IC50 is ≥ 130 µM with HLA-A*24:02 [2] (setting [8]) and ≥ 96.1 µM in the experiment with HLA-A*02:01 (setting [8]).
GLNISGYNY: the Kd with HLA-A*30:02 (setting [9]) is 0.0957 µM; in the experiment with HLA-A*26:01 (setting [9]), ≥ 67.9 µM; with HLA-A*29:02 (setting [9]) it was 0.0168 µM; in the experiment with HLA-A*32:01 (setting [9]), 16.5 µM; with HLA-A*01:01 (setting [9]), 13.4 µM; with HLA-A*30:01 (setting [9]), ≥ 39.2 µM.
With RYQATGFGT, the IC50 in the experiment with HLA-A*24:02 [2] (setting [10]) was ≥ 99.3 µM; with HLA-A*02:01 (setting [10]), ≥ 226 µM.
As to AAHSARPPPY, the Kd with HLA-A*30:02 (setting [11]) was 4.57 µM; in the experiment with HLA-A*26:01 (setting [11]), 2.28 µM; with HLA-A*29:02 (setting [11]), 0.272 µM; in the experiment with HLA-A*32:01 (setting [11]) it was 2.41 µM; with HLA-A*01:01 (setting [11]), 18.8 µM; with HLA-A*30:01 (setting [11]), 0.114 µM.
For the sequence IGIEILNTI, the IC50 with HLA-A*24:02 [2] (setting [7]) turned out to be 0.131 µM; with HLA-A*02:01 (setting [7]), 0.701 µM.
On to ITLHLACGF, for which, in the experiment with HLA-A*32:01 (setting [7]), the Kd was 0.00141 µM.
Consider LFRFFECTF, for which the Kd with HLA-B*15:01 [1] (setting [7]) came to 3.03 µM.
RMNAVSTIL returned a Kd with HLA-B*15:01 [3] (source organism: Bacillus cereus G9241) of 0.0827 µM.
As to LIILSAVAI, the Kd with HLA-A*32:01 (setting [7]) turned out to be 0.125 µM.
Consider KVIQLSRKTF, for which the Kd with HLA-B*15:01 [1] (setting [12]) came to 0.0495 µM.
With YLEYEIENF, the IC50 turned out to be 17.3 µM with HLA-A*24:02 [2] (setting [13]) and 42.6 µM with HLA-A*02:01 (setting [13]).
In the case of IGKALHQVF, in the experiment with HLA-B*15:01 [1] (setting [12]), the Kd was found to be 0.374 µM.
With EGAAIGLAW, in the experiment with HLA-A*24:02 [2] (setting [10]), the IC50 was 2.32 µM.
As for VEIALYQPI, the Kd with HLA-A*30:02 (setting [11]) is ≥ 40.1 µM; in the experiment with HLA-A*23:01, 1.48 µM; with HLA-A*24:02 [4], ≥ 38 µM; in the experiment with HLA-A*26:01 (setting [11]), ≥ 77.9 µM; in the experiment with HLA-A*29:02 (setting [11]) it was ≥ 78.9 µM; with HLA-A*01:01 (setting [11]), ≥ 78.1 µM.
In the experiment with HLA-B*15:01 [3] (source organism: Influenza A virus (A/equine/NewMarket/D64/79(H3N8))), GIFGAIAGF showed a Kd of 0.288 µM.
With GVVAFLILP, the IC50 with HLA-A*24:02 [2] (setting [10]) was ≥ 194 µM; with HLA-A*02:01 (setting [10]), 53.9 µM.
Take AQKRAAAGIM: the Kd with HLA-B*15:01 [1] (setting [12]) was found to be 0.0687 µM.
On to AGVLARWGTF, for which, in the experiment with HLA-A*32:01 (setting [5]), the Kd came to 8.42 µM.
For KTKLTDWDFV, in the experiment with HLA-A*32:01 (source organism: Dengue virus 4 Philippines/H241/1956), the Kd is 15.6 µM.
For DYGLVSKFM, the IC50 in the experiment with HLA-A*24:02 [2] (setting [7]) stood at 0.559 µM.
With KTIARFTYF, the Kd with HLA-B*15:01 [1] (setting [7]) worked out at 0.000195 µM; with HLA-A*32:01 (setting [7]) it was 0.0952 µM.
In turn, SNTTGRLIW came in with an IC50 with HLA-A*24:02 [2] (setting [13]) of 3.61 µM.

For orientation: Kd means the free concentration of one partner at which half of the binding sites on the other are occupied at equilibrium, for simple one-to-one binding. The term IC50 denotes the concentration that inhibits the measured activity by half. A lower IC50 goes with higher potency.
